Source: the DeepSol protein solubility set

Assay: soluble on expression in E. coli; label from the status in PepcDB or PDB records

Question: Which “soluble on expression in E. coli” value does the source give for “MHGLKRSLMIRTVCRGKATTAGADLPQSSQEIEVTTPKSENVPAKSANASTVYRPPYYRKPHQHHEPKHMLQEEFVNAGDASGAGVRVFDYYKTAEMVHSMPTIKEKIDFVSPYERPWTRAEKTWRRDWHPTLMATRKAWGIPPTPAHFDTLDYYKYLTKTRVENESLDDFYHGLRPPTADLQTSFQNTLKSMEFGDGINFSDEDTQKLFGSLIDDAMGGIAHNVSRLADHRVAYDVESEAFWVRSGFMFLYDEEEIGTRDVKRRLNNFPKFIGDDRRKLGELAFVHRDKLAAQVRSKEPSAPLHSFDSEDAKLPIFDTNYNFEETLFSPKVYNLWPDQEPLWQCPGYHADSGESHTYGILGVKSLRPLRKRIAHWMGWENENELESSEEAKQMLDDGARSQAIISMFTTLCAQAHTHGFTQYTDITRSFTSQLVLSDGINFWFAIGQLNTIAINVECDGFVNPRTNYIRIDGPYRLFDYCDKNGQYLSVQEEIDAENKVQRKIAPGLNEKVLERVTQMLMKQ” here?
Answer: not soluble

Question: For “MLPSSIEDYALIGDCETAALVGRDGSIDWLCWPSFDSEACFAALLGNEDNGRWQIAPADEVVRCSRRYRGDSLILETTFETATGSITLIDFMPPRGSASDVVRLVRGDRGRVKVAMQLVIRFGYGVALEHHHHHH”, which “soluble on expression in E. coli” value is on record?
Answer: not soluble

Question: Which “soluble on expression in E. coli” value does the source give for “MVKQISVFVENKPGRLAAVTEVLMKHNINIRAFTIADAGDFGIIRMVVDKTDEAYQALKEAGFTVRLTNVLAVEVEDKPGALHRIAKALGDAGVNIDYVYAFTSEKHKALIIFRVDDREKAKEVLEKLGVLFKGEIN” here?
Answer: not soluble

Question: For “MHYDAIVVGGGMVGAAAALGLAQRGFQVAVIEQEMPTPFDATSPPDLRISAIGYASVALLKELDAWPRVQQMRSAPYRRLETWEWANARVVFDAADIHLPELGFMVENRVLQLALWESLQEEERCRCYCPATPQGLQRTDDGWCLQLADGQKLTASLVIGADGANSQVRQWAGIGISGWQYRQSCMLIGVETSQPQQDVTWQQFTPSGPRAFLPLFDQWGSLVWYDSPQRIRQLQAMPLAQLDKEIAAAFPERLGTVKVISAGSFPLVRRHAQTYIKPGLVLLGDAAHTINPLAGQGVNLGYRDVEALLDVLINARNAGEQWASERVLRRYQCRRMPDNLMMQSGMDLFYSAFSNALPPLSFARNMALMVAQRAGVLKQRALKYAIGVLEHHHHHH”, which “soluble on expression in E. coli” value is on record?
Answer: soluble

Question: With “MGSDKIHHHHHHMDFAAIDKQISALEACIDSTVEVTPGEQLSVGVDLGTAYIVVVVLNAAGSPVACAMEFAQVIKDGLVVDYVGATRIVRRLVQQLEERLGRQLTHAAIAVPPGTGHKDSNTHRHVVEGAGLEVTAILDEPTAANAVLGVQNGVIVDIGGGTTGLSVIEDGKVTYVADEPTGGTHVSLVLAGSYRISFTEAEELKKDQDRQREILPVVRPVIQKMASIVNRHIEGRDISAIYLVGGTCCLKDFETVFEKETGRPVYKPANPFLVTPLGIALNCNA” as the sequence, how does the “soluble on expression in E. coli” value read?
Answer: not soluble

Question: With “MAHHHHHHMETVDALDYSELVALNQEEALRRVLASYPRIGLQATELGRARRIVQRALYHKRAGDAVFLAYTSNLISSGLRDTFACLARDRLIDGFISTAGGIEEDAIKCLGKTLVGQFSLDGRELRRCGVNRTGNLLVPNDNYCHFENFFMPVLKHLHELQRESRWETMTAPSEMIAAIGAALGCKHPETCSDSLLYWCYRNNIPVFSPALTDGSIGDMIYFYNYSKKGLVLDPIVDVVRLRELGCRNRRCDDSQGGNRSQNNNGRTTCIVLGGGLPKHHLLQNVRADTVVYVSTGLEVDASPSSCNVAEDRANGVLLDNCEVVRVHGDASFVFPLLLCKAETSADTHKDVAA” as the sequence, how does the “soluble on expression in E. coli” value read?
Answer: soluble

Question: With “MTSVGVPIKILHEAEGHMVTLETVTGEVYRGKLSEAEDNMNCQLAETVVTFRDGRSHQLDNVFIRGNKIRFMILPDMLKNAPMFKNIGRAQKGAIGMGLGGLDQRGRGRGTAFRRPMGRGGPRGMSRPGGAPTFRG” as the sequence, how does the “soluble on expression in E. coli” value read?
Answer: not soluble

Question: For “EDCQNLLKPCSLCEKRPRDGNIIHGRTGHLVTCFHCARRLKKAGASCPICKKEIQLVIKVFIA”, which “soluble on expression in E. coli” value is on record?
Answer: soluble

Question: For “MGSDKIHHHHHHMKEHEVVGIDRTPCSTADVVGDIRDTALLAEALEGVEVIIHTAALHAPHVGLVPGDEFEEINIKATEQLALMGVKKGIKHFVFTSTTALYGFASTPAGRAGWVDETVMPRPKTIYHHSKIKAEQLLENISSSFDLPVTVLQMSRCFPEPVNLMAVYRLTRGIDARDVARAHACAVERRLSGFRRYIISGKTPFSKACCERLYRDANDVIREAIPGLAESFAVRGWSMPQSLDRVYDSSLAQHELGWQPKYGYESVLSLLDNESAEVLPMKSQS”, which “soluble on expression in E. coli” value is on record?
Answer: not soluble

Question: Which “soluble on expression in E. coli” value does the source give for “MNEEGGYLGAMTYQCLYSPVMEKIKQQHRDDPRASLALNKLHTALTTCEQASPSFLYDFTKVLLDDSELSVNLQESYLRMHDTSPTNDLIVSGYEQNADYKELTKRAIELRRVLSRVPEEMSDRHAFLETIKLIASSIKKLLEAINAVYRIVPLTAQPAVEKRKREFVHYSKRFSNTLKTYFKDQNANQVSVSANQLVFQTTMIVRTINEKLRRG” here?
Answer: not soluble

Question: Which “soluble on expression in E. coli” value does the source give for “MLSFTLRRAMSFTTRILKVRPESIQFVNDKPQISDNETLINLEIAAKELTTTHNAIGFPTETVYGLAGSALSDESVKSIYKAKNRPADNPLIVHISSIEQLKRKLINYEIPQVYLDLISHFWPGPLTILLPITKDSPISKLVTANQDTFAVRMPNHPVARALIAMSDTPIAAPSANASTRPSPTLAEHVYHDLNGKIPLILDGGACNVGVESTVIDGLVDPPMLLRPGGVSLEDIKRVGGKLWENIVVAKKTAGKLEPVKTPGMKYRHYSPTAKVVLFVNCGDGINAIENYLTNNKVDASTTKIALLKSKHFGEDHPHFIIKRLGTTGNEISHNLFKYLREVDEEDKVELIFVEGIDETNEGLAVMNRLSKAAMEVVNGGEA” here?
Answer: soluble

Question: For “GDSFYIRTHFEYEKESPYGLSFNKGEVFRVVDTLYNGKLGSWLAIRIGKNHKEVERGIIPNKNRAEQLASVQYVQTKFPAYERVVLREAGFLRPVTIFGPIADVAREKLAREEPDIYQIAKSEPRDAGTDQRSSGIIRLHTIKQIIDQDKHALLDVTPNAVDRLNYAQWYPIVVFLNPDSKQGVKTMRMRLCPESRKSARKLYERSHKLRKNNHHLFTTTINLNSMNDGWYGALKEAIQQQQNQLVWVSEG”, which “soluble on expression in E. coli” value is on record?
Answer: soluble

Question: With “MQMNTQREQLIHIWLTSVLNSDEFKIQFLAGDASFRRYARVEYKNNTYMLMDAPPEKEDCVPFVHIDEFFDRHGVRVPHILAKDLVQGFLLLEDFGDVLLSTLLNAQTVNHYYLQAFAQLIHLQSIDGQDQFPAYTFEKLMAEMHLLTEWMLPSLDIQPSSAEQDIIQQTFELLANTALNQPQVIVHRDFHSRNLMKIQGEEELGVIDFQDAVIGADTYDLISITRDAYVQWGEDQVITWFEMFYDLLPDTSKHHRDFEQFKRDADFMAIQRHIKILGIFVRLFERDGKSSYLKDLPRVMWYLLQESRPYAELKPFVEFIQYQVMPKFEQKYGGYEVVKK” as the sequence, how does the “soluble on expression in E. coli” value read?
Answer: not soluble

Question: For “MAHHHHHHMMAHRCAFQTIASPALTQREVEFTKSAWIAGLRPDQRGAQQLREVNVDFPLLSRDVSCVRCGGTIVTAAIACELVEPFPCRPKHGIIDFSVRQPYTERDSSAKTAELKKLTAFLERLIKGGGVVDTEGLCVLPGRRVWSISVDVTVLNDEGNVTDVAVWATVAVLLHYRRPELTIRGDSVILHPTHERDPVPLSIHHTPLSFSFAITMAPGDRNKLARGRRDSQEALEVVVDPTFAEATAASSSVVVAVNAEGQVCSVSKSEGSCIHLNEVNHCMETASLLAPHILSLIRDAMAAHDKRRQEVLKRMFLWAQKRSGVTSEATEPEPAKKLKTET”, which “soluble on expression in E. coli” value is on record?
Answer: not soluble

Question: Which “soluble on expression in E. coli” value does the source give for “MTAQTTHTVDAVVIGAGFGGIYAVHKLHHELGLTTVGFDKADGPGGTWYWNRYPGALSDTESHLYRFSFDRDLLQESTWKTTYITQPEILEYLEDVVDRFDLRRHFKFGTEVTSALYLDDENLWEVTTDHGEVYRAKYVVNAVGLLSAINFPNLPGLDTFEGETIHTAAWPEGKSLAGRRVGVIGTGSTGQQVITSLAPEVEHLTVFVRTPQYSVPVGNRPVNPEQIAEIKADYDRIWERAKNSAVAFGFEESTLPAMSVSEEERNRIFQEAWDHGGGFRFMFGTFGDIATDEAANEAAASFIRAKVAEIIEDPETARKLMPKGLFAKRPLCDSGYYEVYNRPNVEAVAIKENPIREVTAKGVVTEDGVLHELDVLVFATGFDAVDGNYRRIEIRGRDGLHINDHWDGQPTSYLGVSTANFPNWFMVLGPNGPFTNLPPSIETQVEWISDTIGYAERNGVRAIEPTPEAEAEWTETCTEIANATLFTKGDSWIFGANIPGKKPSVLFYLGGLRNYRAVMAEVAADGYRGFEVKSAEMVTV” here?
Answer: soluble
